Results reported in PMC7203112, “Structural basis for the complex DNA binding behavior of the plant stem cell regulator WUSCHEL”.
Where a chain is given by its changes, count along the chain named. Numbers in names are those of the source.

Columns and labels:
YFP-WUS-HD = target: T1, YFP-WUS-HD (Arabidopsis thaliana, UniProt Q9SB92 34-103); assay: MST; MST: 20 mM Tris-HCl pH 8.0, 75 mM NaCl, 10 mM MgCl2, 0.05% Tween-20, 20 C, 50 nM YFP-WUS; ITC: same without Tween, 20 C; EMSA: 10 mM Tris-HCl pH 8.0, 75 mM NaCl, 50 ug/ml poly(dI-dC), 1 mM EDTA, 1 mM DTT, 5% glycerol; conditions: protein: recombinant; tags: N-terminal His6-YFP, C-terminal StrepII; blunt
T1 sequence: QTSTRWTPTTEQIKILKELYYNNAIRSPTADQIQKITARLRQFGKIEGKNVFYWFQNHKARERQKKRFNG

YFP-WUS-HD S36R = target: T2, YFP-WUS-HD S36R (Arabidopsis thaliana, UniProt Q9SB92 34-103, S36R); assay: as above; conditions: protein: recombinant; tags: N-terminal His6-YFP, C-terminal StrepII; blunt
T2 sequence: T1 sequence with S3R

YFP-WUS-HD T35R = target: T3, YFP-WUS-HD T35R (Arabidopsis thaliana, UniProt Q9SB92 34-103, T35R); assay: as above; conditions: protein: recombinant; tags: N-terminal His6-YFP, C-terminal StrepII; blunt
T3 sequence: T1 sequence with T2R

YFP-WUS-HD R94K = target: T4, YFP-WUS-HD R94K (Arabidopsis thaliana, UniProt Q9SB92 34-103, R94K); assay: as above; conditions: protein: recombinant; tags: N-terminal His6-YFP, C-terminal StrepII; blunt
T4 sequence: T1 sequence with R61K

WUS-HD [1] = target: T5, WUS-HD (Arabidopsis thaliana, UniProt Q9SB92 34-103); assay: EMSA; MST: 20 mM Tris-HCl pH 8.0, 75 mM NaCl, 10 mM MgCl2, 0.05% Tween-20, 20 C, 50 nM YFP-WUS; ITC: same without Tween, 20 C; EMSA: 10 mM Tris-HCl pH 8.0, 75 mM NaCl, 50 ug/ml poly(dI-dC), 1 mM EDTA, 1 mM DTT, 5% glycerol; conditions: protein: recombinant; tags: none after TEV cleavage (from His6-MBP); label: Cy5; blunt
T5 sequence: T1 sequence

WUS-HD [2] = target: T5, WUS-HD; assay: EMSA; shift slightly modified; MST: 20 mM Tris-HCl pH 8.0, 75 mM NaCl, 10 mM MgCl2, 0.05% Tween-20, 20 C, 50 nM YFP-WUS; ITC: same without Tween, 20 C; EMSA: 10 mM Tris-HCl pH 8.0, 75 mM NaCl, 50 ug/ml poly(dI-dC), 1 mM EDTA, 1 mM DTT, 5% glycerol; conditions: protein: recombinant; tags: none after TEV cleavage (from His6-MBP); label: Cy5; blunt
WUS-HD [3] = target: T5, WUS-HD; assay: crystal structure; 2.8 A; two or three HD per DNA; MST: 20 mM Tris-HCl pH 8.0, 75 mM NaCl, 10 mM MgCl2, 0.05% Tween-20, 20 C, 50 nM YFP-WUS; ITC: same without Tween, 20 C; EMSA: 10 mM Tris-HCl pH 8.0, 75 mM NaCl, 50 ug/ml poly(dI-dC), 1 mM EDTA, 1 mM DTT, 5% glycerol; conditions: protein: recombinant; tags: none after TEV cleavage (from His6-MBP); blunt
YFP-WUS-HD I66A = target: T6, YFP-WUS-HD I66A (Arabidopsis thaliana, UniProt Q9SB92 34-103, I66A); assay: MST; MST: 20 mM Tris-HCl pH 8.0, 75 mM NaCl, 10 mM MgCl2, 0.05% Tween-20, 20 C, 50 nM YFP-WUS; ITC: same without Tween, 20 C; EMSA: 10 mM Tris-HCl pH 8.0, 75 mM NaCl, 50 ug/ml poly(dI-dC), 1 mM EDTA, 1 mM DTT, 5% glycerol; conditions: protein: recombinant; tags: N-terminal His6-YFP, C-terminal StrepII; blunt
T6 sequence: T1 sequence with I33A

YFP-WUS-HD F101A = target: T7, YFP-WUS-HD F101A (Arabidopsis thaliana, UniProt Q9SB92 34-103, F101A); assay: as above; conditions: protein: recombinant; tags: N-terminal His6-YFP, C-terminal StrepII; blunt
T7 sequence: T1 sequence with F68A

YFP-WUS-HD F85A = target: T8, YFP-WUS-HD F85A (Arabidopsis thaliana, UniProt Q9SB92 34-103, F85A); assay: as above; conditions: protein: recombinant; tags: N-terminal His6-YFP, C-terminal StrepII; blunt
T8 sequence: T1 sequence with F52A

WUS-HD [4] = target: T5, WUS-HD; assay: ITC; first binding event (Kd,1), sequential model, 2:1; MST: 20 mM Tris-HCl pH 8.0, 75 mM NaCl, 10 mM MgCl2, 0.05% Tween-20, 20 C, 50 nM YFP-WUS; ITC: same without Tween, 20 C; EMSA: 10 mM Tris-HCl pH 8.0, 75 mM NaCl, 50 ug/ml poly(dI-dC), 1 mM EDTA, 1 mM DTT, 5% glycerol; conditions: protein: recombinant; tags: none after TEV cleavage (from His6-MBP); blunt
MBP-WUS-FL = target: T9, MBP-WUS-FL (Arabidopsis thaliana, UniProt Q9SB92 1-292); assay: EMSA; MST: 20 mM Tris-HCl pH 8.0, 75 mM NaCl, 10 mM MgCl2, 0.05% Tween-20, 20 C, 50 nM YFP-WUS; ITC: same without Tween, 20 C; EMSA: 10 mM Tris-HCl pH 8.0, 75 mM NaCl, 50 ug/ml poly(dI-dC), 1 mM EDTA, 1 mM DTT, 5% glycerol; conditions: protein: recombinant; tags: N-terminal His6-MBP; chain copies: 2; label: Cy5; blunt
T9 sequence: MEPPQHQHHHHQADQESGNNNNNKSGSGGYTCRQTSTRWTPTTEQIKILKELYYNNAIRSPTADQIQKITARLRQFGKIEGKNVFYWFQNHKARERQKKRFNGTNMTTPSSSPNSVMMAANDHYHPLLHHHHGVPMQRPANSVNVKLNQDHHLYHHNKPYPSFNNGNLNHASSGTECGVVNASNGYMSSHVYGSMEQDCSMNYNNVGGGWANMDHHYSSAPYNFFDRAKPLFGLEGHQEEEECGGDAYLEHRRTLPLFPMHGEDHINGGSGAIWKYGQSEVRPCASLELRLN

B1: 2xTGAA 4xSpacing (dsDNA)
DNA 1: CGTGAAGCGCTGAACC
DNA 2: GGTTCAGCGCTTCACG
Kd (YFP-WUS-HD): 3580 ± 440 nM

B2: TGAA Head-to-Head (dsDNA)
DNA 1: CGCCTTCATGAACGCC
DNA 2: GGCGTTCATGAAGGCG
Kd (YFP-WUS-HD): 3170 ± 350 nM

B3: TGAA 16-bp (dsDNA)
DNA 1: AGTGTATGAATGAACG
DNA 2: CGTTCATTCATACACT
Kd (YFP-WUS-HD S36R): 320 ± 30 nM | Kd (YFP-WUS-HD T35R): 540 ± 70 nM | Kd (YFP-WUS-HD R94K): 11000 ± 1620 nM | Kd (YFP-WUS-HD): 270 ± 30 nM

B4: f_TAAT wt 16-bp (dsDNA)
DNA 1: GTGTTAATGGGTTGTG
DNA 2: CACAACCCATTAACAC
binding result (WUS-HD [1]): binds

B5: TGAA Tail-to-Tail (dsDNA)
DNA 1: CGCCTGAATTCACGCC
DNA 2: GGCGTGAATTCAGGCG
Kd (YFP-WUS-HD): 1900 ± 200 nM

B6: 2xTGAA 1xSpacing (dsDNA)
DNA 1: CGCTGAACTGAACGCC
DNA 2: GGCGTTCAGTTCAGCG
Kd (YFP-WUS-HD): 2210 ± 250 nM

B7: 3xTGAT (dsDNA)
DNA 1: CGTGATTGATTGATCC
DNA 2: GGATCAATCAATCACG
Kd (YFP-WUS-HD): 120 ± 10 nM

B8: f_TAAT T12C,T15C (dsDNA)
DNA 1: GTGTTAATGGGCTGCG
DNA 2: CGCAGCCCATTAACAC
binding result (WUS-HD [2]): binds

B9: TAAT 16-bp (dsDNA)
DNA 1: GTGTTAATGGGTTGTG
DNA 2: CACAACCCATTAACAC
Kd (YFP-WUS-HD S36R): 1670 ± 170 nM | Kd (YFP-WUS-HD T35R): 1670 ± 200 nM | Kd (YFP-WUS-HD R94K): 4590 ± 580 nM | binding result (WUS-HD [3]): binds

B10: 3xTGAA 1xSpacing (dsDNA)
DNA 1: CTGAACTGAACTGAAC
DNA 2: GTTCAGTTCAGTTCAG
Kd (YFP-WUS-HD): 840 ± 120 nM

B11: 2xTGAA (dsDNA)
DNA 1: CGCCTGAATGAACGCC
DNA 2: GGCGTTCATTCAGGCG
Kd (YFP-WUS-HD I66A): 8200 ± 840 nM | Kd (YFP-WUS-HD F101A): 800 ± 120 nM | Kd (YFP-WUS-HD): 300 ± 40 nM | Kd (YFP-WUS-HD F85A): 6810 ± 870 nM | Kd (WUS-HD [4]): 1240 ± 140 nM

B12: f_TAAT T12C (dsDNA)
DNA 1: GTGTTAATGGGCTGTG
DNA 2: CACAGCCCATTAACAC
binding result (WUS-HD [1]): binds

B13: 3xTGAG (dsDNA)
DNA 1: CGTGAGTGAGTGAGCC
DNA 2: GGCTCACTCACTCACG
Kd (YFP-WUS-HD): 1420 ± 170 nM

B14: 1xTGAA (dsDNA)
DNA 1: CGCCGGTGAAGCCGCC
DNA 2: GGCGGCTTCACCGGCG
Kd (YFP-WUS-HD): 10500 ± 2300 nM

B15: G-Box 16-bp (dsDNA)
DNA 1: GTCGTCACGTGATGGG
DNA 2: CCCATCACGTGACGAC
Kd (YFP-WUS-HD): 3780 ± 420 nM

B16: 3xTGAC (dsDNA)
DNA 1: CGTGACTGACTGACCC
DNA 2: GGGTCAGTCAGTCACG
Kd (YFP-WUS-HD): 390 ± 50 nM

B17: f_G-Box (dsDNA)
DNA 1: CATCGTCGTCACGTGATGGG
DNA 2: CCCATCACGTGACGACGATG
Kd (MBP-WUS-FL): 1680 ± 300 nM

B18: 3xTGAA (dsDNA)
DNA 1: CGTGAATGAATGAACC
DNA 2: GGTTCATTCATTCACG
Kd (YFP-WUS-HD): 60 ± 10 nM
